Columns and labels:
[1] = test system: mouse, rat, monkey, and human EphA4; experiment: Reactivity ELISA with mouse, rat, monkey, and human EphA4; assay type: binding; details: 0.00128-20 μg/mL
Description: Mouse, rat, monkey, and human EphA4 extracellular region-Fc-His proteins were prepared according to the following steps. First, according to the method described in Example 1, a monkey EphA4 extracellular region-Fc-His protein expression vector was constructed. The amino acid sequence of monkey EphA4 used in the vector construction is shown in SEQ ID NO: 44, and its extracellular region is shown in SEQ ID NO: 45. Next, HEK293EBNA cells (Life Technologies) were inoculated to a 10-cm dish (Falcon) and cultured at 37° C. for 1 day. The HEK293EBNA cells were transfected with the monkey EphA4 extracellular region-Fc-His protein expression vector or the mouse EphA4, rat EphA4, or human EphA4 extracellular region-Fc-His protein expression vector described in Example 1 using TransIT-LT1 (TAKARA). After incubation (5% CO2, 37° C.) for 4 days, the culture supernatant was recovered and centrifuged at 1500 rpm at room temperature for 5 minutes. […]
Antibody A was evaluated for its binding activity against various Eph receptors according to the following steps.
Each well of a 96-well plate (Nunc) was coated with a donkey anti-mouse IgG antibody (Jackson ImmunoResearch Laboratories). […] The absorbance at 450 nm was read using a microplate reader (PerkinElmer).

[2] = test system: human iPS cell-derived motor neuron / variant human SOD1 (G93A)-expressing astrocyte coculture; experiment: Motor neuron protection in in vitro ALS model derived from human iPS cells; assay type: cell-based; details: antibody A 10, 30, 100 nM; EphA4-Fc 3, 10, 30 nM; KYL peptide 1, 3, 10 μM; 2 days
Description: Human iPS cells were maintained and cultured according to the following steps. Human iPS cells (201B7) cryopreserved in liquid nitrogen using Stem cell banker (TAKARA) were taken out of the gas phase of liquid nitrogen and immediately suspended and thawed in 5 mL of a human iPS cell culture medium (Essential 8, Thermo Fisher Scientific) prewarmed to 37° C. The cell suspension was recovered into a 15-mL conical tube (Falcon) and centrifuged (1000 rpm, 5 min, room temperature), followed by the removal of the supernatant. The cells were suspended in a fresh medium and then disseminated to a ϕ60 mm cell culture dish (Falcon BD) coated with 0.5 μg/cm^2 Human recombinant vitronectin (Invitrogen) in advance. 10 μM Y-27632 (Wako Pure Chemical Industries) was added thereto, and the cells were maintained and cultured in a CO2 incubator (5% CO2, 37° C.). Medium replacement was performed every day, and the cells were subjected to the experiment when reaching confluency.
The culture medium of the maintained and cultured human iPS cells was aspirated, and the cells were washed with 2 mL of PBS (Wako Pure Chemical Industries). […] Then, the number of cells was counted using a counting chamber. […]

B1: antibody A: mouse anti-EphA4 monoclonal antibody, IgG1/κ; heavy chain variable region SEQ ID NO: 11, light chain variable region SEQ ID NO: 13 (antibody, listed as Mus musculus, V domains shown)
VH: QIQLVQSGPELKKPGETVKISCKASGYTFTDYSMHWVKQAPGKGLKWMGWINTETGEPTYADDFKGRFAFSLETSASTAYLQINNLKNEDTATYFCARIPLYYYGSRYWYFDVWGAGTTVTVSS
VL: DIQMTQSPASLSVSVGETVTITCRASENIYRNLAWYQQKQGKSPQLLVYAATNLADGVPSRFSGSGSGTQYSLKINSLQSEDFGSYYCQHFWGTPWTFGGGTKLEIK
[1]
  reaction activity against mouse, rat, monkey, and human EphA4 (in words): equivalent reaction activity against all of mouse, rat, monkey, and human EphA4
[2]
  suppression of motor neuron death / motor neuron protective effect (in words): suppressed, in a concentration-dependent manner
